Assay results reported in patent US20080280333.

Target: T1, GlxR (Corynebacterium glutamicum) (UniProt Q79VI7)
T1 sequence: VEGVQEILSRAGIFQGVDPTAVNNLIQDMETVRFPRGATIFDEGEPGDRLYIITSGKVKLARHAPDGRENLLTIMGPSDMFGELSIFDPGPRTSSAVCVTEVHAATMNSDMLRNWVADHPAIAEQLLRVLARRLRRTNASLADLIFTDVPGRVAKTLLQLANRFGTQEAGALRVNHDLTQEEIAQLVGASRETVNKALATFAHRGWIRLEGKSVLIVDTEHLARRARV
Experiment: cell_activity

PaceB-lacZYA reporter (aceB promoter region)
activity (mU beta-galactosidase) (E. coli DH5alphaF'-145 with pSL145, 27 mU with empty vector pMT1, repression): 2.5
activity (beta-galactosidase activity) (E. coli HL994, chromosomal PaceB-lacZYA, 237 with empty vector): 128
